The values below come from US20100267609A1 (OKLAHOMA MEDICAL RESEARCH FOUNDATION, published 2010).

For orientation: Ki means a dissociation constant, usually derived from enzyme kinetics or from competition with a known ligand. Lower therefore signals a stronger hold on the target.

In experiment [1] the target is T1, memapsin 2 (spontaneously activated promemapsin 2-T1; amino acids 43-456 and 45-456 of SEQ ID NO: 8) (human, UniProt P56817 41-454).
T1 construct: also called Mep2; M2
The experiment is described as follows: kinetic inhibition of memapsin 2, fluorogenic substrate.

For experiment [2], the target named is T2, memapsin 1 (amino acid residues 58-461 of SEQ ID NO: 4) (Homo sapiens (Human), UniProt Q9Y5Z0 63-466).
T2 construct: also called Mep1; M1
T2 sequence: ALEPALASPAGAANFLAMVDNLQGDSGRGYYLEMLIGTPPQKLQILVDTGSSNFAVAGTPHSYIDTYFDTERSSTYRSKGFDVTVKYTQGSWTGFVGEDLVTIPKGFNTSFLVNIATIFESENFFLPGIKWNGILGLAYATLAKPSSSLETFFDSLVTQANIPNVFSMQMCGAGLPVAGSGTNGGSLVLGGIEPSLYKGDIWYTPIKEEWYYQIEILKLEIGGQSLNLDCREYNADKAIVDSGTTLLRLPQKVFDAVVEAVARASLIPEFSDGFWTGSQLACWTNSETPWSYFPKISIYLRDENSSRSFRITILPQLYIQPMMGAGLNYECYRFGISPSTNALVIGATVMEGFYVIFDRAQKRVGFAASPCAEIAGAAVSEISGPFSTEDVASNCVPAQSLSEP
The experiment is described as follows: ratio of Ki apparent for memapsin 1 to that for memapsin 2.

The target in experiment [3] is T2, memapsin 1 (amino acid residues 58-461 …). The experiment can be described thus: inhibition of cleavage of fluorogenic substrate FS-2.
For experiment [4], the target named is T1, memapsin 2 (spontaneously activated …). The experiment is described as above.
The target is the same in experiment [5]. The experiment is described as follows: inhibition of cleavage of a fluorogenic substrate.
The target is the same in experiment [6]. The experiment can be described thus: bead library probed with 4 nM memapsin 2, OM99-2 wash, anti-memapsin 2 IgG and alkaline phosphatase staining.

Where no end group is shown, it is not given here. [ ]: non-standard residue; d: D form. FAM = 5-(and 6-)carboxyfluorescein; resin = not defined here; Ahx = NCCCCCC(=O)O

T1 sequence (P56817 41-454 Q214G): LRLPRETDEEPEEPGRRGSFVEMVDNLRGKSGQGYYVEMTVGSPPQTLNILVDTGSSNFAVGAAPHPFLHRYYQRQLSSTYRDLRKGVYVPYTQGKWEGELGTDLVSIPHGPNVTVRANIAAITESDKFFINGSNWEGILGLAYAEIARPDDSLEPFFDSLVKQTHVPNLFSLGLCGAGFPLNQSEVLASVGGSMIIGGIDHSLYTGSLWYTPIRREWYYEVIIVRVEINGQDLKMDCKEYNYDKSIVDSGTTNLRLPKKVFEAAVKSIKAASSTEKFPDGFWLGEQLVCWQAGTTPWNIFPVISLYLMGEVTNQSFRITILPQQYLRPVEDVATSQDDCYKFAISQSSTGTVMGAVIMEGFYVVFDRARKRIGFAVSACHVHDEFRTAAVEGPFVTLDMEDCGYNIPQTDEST

B1: CPI-1: FAM-Ahx-(EVNL*AAEF)-G-([…]) (peptide)
peptide: {FAM-Ahx}-EVNLAAEFGYGRKKRRQRRR
modifications: numbers in words are those of the source; also: Leu4*Ala6: hydroxyethylene isostere -CH(OH)-CH2- replaces the amide bond
notes: OM99-2 joined through Gly to HIV tat residues 47-57; also called Fs[OM99-2]tat
Regarding B1, the Ki apparent in experiment [1] was 39 nM.

B2: OM00-3 (ELDL*AVEF; Glu-Leu-Asp-Leu*Ala-Val-Glu-Phe) (peptide)
peptide: ELDLAVEF
modifications: numbers in words are those of the source; also: Leu4*Ala5: hydroxyethylene transition-state isostere -CH(OH)-CH2- replaces the peptide bond
In the case of B2, the “Ki apparent (M1/M2)” value in experiment [2] was found to be 0.59. Also, the Ki apparent in experiment [3] was determined as 0.18 nM. In addition, the Ki apparent in experiment [4] came out at 0.31 nM. In addition, in experiment [5], the Ki was 0.31 nM, the “fold improvement of Ki relative to OM99-2” value turned out to be 5.2 fold and the “fold lower Ki than OM99-2” value was approximately 5 fold.

B3: CPI-2: FAM-Ahx-(ELDL*AVEF)-GG-(RRRRRRRRR) (peptide)
peptide: {FAM-Ahx}-ELDLAVEFGG[dR][dR][dR][dR][dR][dR][dR][dR][dR]
modifications: numbers in words are those of the source; also: Leu4*Ala6: hydroxyethylene isostere -CH(OH)-CH2- replaces the amide bond
notes: OM00-3 joined through Gly-Gly to nine D-arginines
Turning to B3, in experiment [1], the Ki apparent was 58 nM.

B4: CPI-3: (ELDL*AVEF)-GG-(RRRRRRRRR) (peptide)
peptide: ELDLAVEFGG[dR][dR][dR][dR][dR][dR][dR][dR][dR]
modifications: numbers in words are those of the source; also: Leu4*Ala6: hydroxyethylene isostere -CH(OH)-CH2- replaces the amide bond
Take B4: the Ki in experiment [1] was determined as 35 nM.

B5: library bead Gly-Ile-Asp-Leu*Ala-Ala-Gln-Phe-Arg-Met-Gly-Gly-resin (peptide)
peptide: GIDLAAQFRMGG-resin
modifications: reading uncertain; also: hydroxyethylene isostere between Leu4 and Ala5, printed as Gly-Ile-Asp-Leu*Ala-Ala-Gln-Phe-Arg-Met-Gly-Gly-resin
Take B5: the binding result in experiment [6] is recorded as “binds”.
